Columns and labels:
HLA-A*02:01 = HLA-A*02:01 (Homo sapiens, UniProt P04439, D140Y/D185E/D98H/E176V/E277Q/G131W/G231S/I119V/I121R/I166T/I218V/L300P/L318F/N151K/N90K/P208A/P217A/Q86G/Q94H/R138H/R169H/T345S); assay: MHC binding assay: UV-ligand exchange with beta2m ELISA (peptide exchange yield); details: binding to HLA-A*02:01, β2m ELISA
In short: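 UV-exchange pMHC monomers, 100-fold diluted → streptavidin capture 1 h 37 °C → HRP anti-β2m 2 ug/ml 1 h 37 °C → TMB, A450. Yield from HLA-A*02:01/MLA-001 monomer standard curve, 15-500 ng/ml. Only stably bound peptides keep β2m-containing complexes intact.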

CD8+ T cells = assay: In vitro immunogenicity: T-cell priming with aAPCs loaded with peptide/MHC and anti-CD28, pMHC multimer readout; type: cell-based, human; details: percentage of positive wells among evaluable, HLA-A*02 restricted peptides
Description: In order to obtain information regarding the immunogenicity of the TUMAPs of the present invention, the inventors performed investigations using an in vitro T-cell priming assay based on repeated stimulations of CD8+ T cells with artificial antigen presenting cells (aAPCs) loaded with peptide/MHC complexes and anti-CD28 antibody.
In order to perform in vitro stimulations by artificial antigen presenting cells loaded with peptide-MHC complex (pMHC) and anti-CD28 antibody, the inventors first isolated CD8+ T cells from fresh HLA-A*02 leukapheresis products via positive selection using CD8 microbeads (Miltenyi Biotec, Bergisch-Gladbach, Germany) of healthy donors obtained from the University clinics Mannheim, Germany, after informed consent. PBMCs and isolated CD8+ lymphocytes were incubated in T-cell medium (TCM) until use consisting of RPMI-Glutamax (Invitrogen, Karlsruhe, Germany) supplemented with 10% heat inactivated human AB serum (PAN-Biotech, Aidenbach, Germany), 100 U/ml Penicillin/100 μg/ml Streptomycin (Cambrex, Cologne, Germany), 1 mM sodium pyruvate (CC Pro, Oberdorla, Germany), 20 μg/ml Gentamycin (Cambrex). 2.5 ng/ml IL-7 (PromoCell, Heidelberg, Germany) and 10 U/ml IL-2 (Novartis Pharma, Nürnberg, Germany) were also added to the TCM at this step. Generation of pMHC/anti-CD28 coated beads, T-cell stimulations and readout was performed in a highly defined in vitro system using four different pMHC molecules per stimulation condition and 8 different pMHC molecules per readout condition.
The purified co-stimulatory mouse IgG2a anti human CD28 Ab 9.3 (Jung et al., 1987) was chemically biotinylated using Sulfo-N-hydroxysuccinimidobiotin as recommended by the manufacturer (Perbio, Bonn, Germany). Beads used were 5.6 μm diameter streptavidin coated polystyrene particles (Bangs Laboratories, Illinois, USA).
pMHC used for positive and negative control stimulations were A*0201/MLA-001 (peptide […] (SEQ ID NO. 289) from modified Melan-A/MART-1) and A*0201/DDX5-001 ([…] from DDX5, SEQ ID NO. 290), respectively.
800.000 beads/200 μl were coated in 96-well plates in the presence of 4×12.5 ng different biotin-pMHC, washed and 600 ng biotin anti-CD28 were added subsequently in a volume of 200 μl. Stimulations were initiated in 96-well plates by co-incubating 1×10^6 CD8+ T cells with 2×10^5 washed coated beads in 200 μl TCM supplemented with 5 ng/ml IL-12 (PromoCell) for 3 days at 37° C. Half of the medium was then exchanged by fresh TCM supplemented with 80 U/ml IL-2 and incubating was continued for 4 days at 37° C. This stimulation cycle was performed for a total of three times. For the pMHC multimer readout using 8 different pMHC molecules per condition, a two-dimensional combinatorial coding approach was used as previously described (Andersen et al., 2012) with minor modifications encompassing coupling to 5 different fluorochromes. Finally, multimeric analyses were performed by staining the cells with Live/dead near IR dye (Invitrogen, Karlsruhe, Germany), CD8-FITC antibody clone SK1 (BD, Heidelberg, Germany) and fluorescent pMHC multimers. For analysis, a BD LSRII SORP cytometer equipped with appropriate lasers and filters was used. Peptide specific cells were calculated as percentage of total CD8+ cells. Evaluation of multimeric analysis was done using the FlowJo software (Tree Star, Oregon, USA). In vitro priming of specific multimer+CD8+ lymphocytes was detected by comparing to negative control stimulations.

| Substance | Peptide exchange (MHC class I binding score, peptide exchange yield) (HLA-A*02:01) | Wells positive [%] (CD8+ T cells) |
| --- | --- | --- |
| 255 (FLMKNSDLYGA; listed as Homo sapiens) [compound 255] | +++ (= ≥50% = +++) | + (<20% = +) |
| 257 (KLIDHQGLYL; listed as Homo sapiens) [compound 257] | +++ (= ≥50% = +++) | + (<20% = +) |
| 260 (ALNESLVEC; listed as Homo sapiens) [compound 260] | +++ (= ≥50% = +++) | + (<20% = +) |
| 263 (SIIEYLPTL; listed as Homo sapiens) [compound 263] | +++ (= ≥50% = +++) | + (<20% = +) |
| 267 (YLLDMPLWYL; listed as Homo sapiens) [compound 267] | +++ (= ≥50% = +++) | + (<20% = +) |

Source: patent US11332512B2, “Peptides and combination of peptides for use in immunotherapy against various tumors” (Immatics Biotechnologies GmbH, priority 2015, dated 2022)
